# Results reported in publication PMC7885793 (Biochemistry, 2019).
# T1: PLCβ3 ΔXY1 (Homo sapiens, UniProt Q01970 10-1234, ΔXY1 (residues 471–569))
# T1 sequence (looked up): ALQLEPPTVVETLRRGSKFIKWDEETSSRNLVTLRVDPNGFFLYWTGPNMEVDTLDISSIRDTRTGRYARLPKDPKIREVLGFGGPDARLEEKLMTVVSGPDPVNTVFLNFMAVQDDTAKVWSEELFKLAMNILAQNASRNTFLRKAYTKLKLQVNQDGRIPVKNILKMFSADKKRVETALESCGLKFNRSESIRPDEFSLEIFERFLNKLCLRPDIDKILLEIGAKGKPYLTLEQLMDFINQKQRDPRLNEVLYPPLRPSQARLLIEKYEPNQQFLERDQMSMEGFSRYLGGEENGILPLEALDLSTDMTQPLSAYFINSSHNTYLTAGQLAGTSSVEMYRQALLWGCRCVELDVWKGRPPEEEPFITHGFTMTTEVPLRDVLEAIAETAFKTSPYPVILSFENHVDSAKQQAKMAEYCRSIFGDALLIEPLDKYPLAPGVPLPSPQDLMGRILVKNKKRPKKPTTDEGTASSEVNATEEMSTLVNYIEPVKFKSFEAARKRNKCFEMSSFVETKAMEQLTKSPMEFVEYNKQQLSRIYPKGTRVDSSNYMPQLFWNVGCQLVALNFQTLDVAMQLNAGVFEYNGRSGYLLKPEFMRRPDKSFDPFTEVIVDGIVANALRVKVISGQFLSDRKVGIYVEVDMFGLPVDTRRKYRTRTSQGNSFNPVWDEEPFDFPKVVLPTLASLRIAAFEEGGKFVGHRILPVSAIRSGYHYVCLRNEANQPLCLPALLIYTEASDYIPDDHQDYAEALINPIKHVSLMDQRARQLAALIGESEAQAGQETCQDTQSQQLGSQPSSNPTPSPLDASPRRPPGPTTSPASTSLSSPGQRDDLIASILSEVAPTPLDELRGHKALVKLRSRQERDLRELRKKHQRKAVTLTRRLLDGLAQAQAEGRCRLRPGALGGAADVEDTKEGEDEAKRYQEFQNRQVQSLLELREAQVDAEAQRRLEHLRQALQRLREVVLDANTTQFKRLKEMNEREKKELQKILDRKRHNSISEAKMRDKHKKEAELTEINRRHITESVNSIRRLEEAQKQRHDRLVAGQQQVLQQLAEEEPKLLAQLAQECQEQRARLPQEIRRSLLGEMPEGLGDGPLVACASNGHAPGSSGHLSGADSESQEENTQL
# T2: PLCβ3-Δ892 ΔXY1 (Homo sapiens, UniProt Q01970 10-892, ΔXY1 (residues 471–569))
# T2 sequence (looked up): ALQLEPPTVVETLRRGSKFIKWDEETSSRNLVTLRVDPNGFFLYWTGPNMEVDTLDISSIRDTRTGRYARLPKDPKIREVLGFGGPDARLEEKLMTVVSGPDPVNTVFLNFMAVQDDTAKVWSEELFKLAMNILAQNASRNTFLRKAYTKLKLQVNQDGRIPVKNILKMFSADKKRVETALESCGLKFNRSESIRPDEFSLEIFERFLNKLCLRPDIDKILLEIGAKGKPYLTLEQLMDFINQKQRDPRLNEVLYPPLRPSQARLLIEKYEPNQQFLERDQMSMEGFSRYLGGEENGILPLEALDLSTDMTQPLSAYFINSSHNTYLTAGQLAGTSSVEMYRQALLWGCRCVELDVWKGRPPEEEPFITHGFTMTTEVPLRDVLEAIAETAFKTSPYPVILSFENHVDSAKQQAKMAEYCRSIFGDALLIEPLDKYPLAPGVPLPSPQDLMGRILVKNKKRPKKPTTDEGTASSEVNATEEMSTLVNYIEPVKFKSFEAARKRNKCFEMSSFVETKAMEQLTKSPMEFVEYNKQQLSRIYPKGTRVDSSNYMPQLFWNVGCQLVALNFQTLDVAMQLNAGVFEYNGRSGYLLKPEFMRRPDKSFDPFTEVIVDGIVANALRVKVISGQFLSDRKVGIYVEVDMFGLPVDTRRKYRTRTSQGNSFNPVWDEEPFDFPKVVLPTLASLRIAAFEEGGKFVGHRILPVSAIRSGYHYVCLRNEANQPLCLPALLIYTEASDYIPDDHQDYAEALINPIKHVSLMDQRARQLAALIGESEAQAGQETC
# T3: PLCβ3-Δ892 (residues 10–892) (Homo sapiens, UniProt Q01970 10-892)
# T3 sequence (looked up): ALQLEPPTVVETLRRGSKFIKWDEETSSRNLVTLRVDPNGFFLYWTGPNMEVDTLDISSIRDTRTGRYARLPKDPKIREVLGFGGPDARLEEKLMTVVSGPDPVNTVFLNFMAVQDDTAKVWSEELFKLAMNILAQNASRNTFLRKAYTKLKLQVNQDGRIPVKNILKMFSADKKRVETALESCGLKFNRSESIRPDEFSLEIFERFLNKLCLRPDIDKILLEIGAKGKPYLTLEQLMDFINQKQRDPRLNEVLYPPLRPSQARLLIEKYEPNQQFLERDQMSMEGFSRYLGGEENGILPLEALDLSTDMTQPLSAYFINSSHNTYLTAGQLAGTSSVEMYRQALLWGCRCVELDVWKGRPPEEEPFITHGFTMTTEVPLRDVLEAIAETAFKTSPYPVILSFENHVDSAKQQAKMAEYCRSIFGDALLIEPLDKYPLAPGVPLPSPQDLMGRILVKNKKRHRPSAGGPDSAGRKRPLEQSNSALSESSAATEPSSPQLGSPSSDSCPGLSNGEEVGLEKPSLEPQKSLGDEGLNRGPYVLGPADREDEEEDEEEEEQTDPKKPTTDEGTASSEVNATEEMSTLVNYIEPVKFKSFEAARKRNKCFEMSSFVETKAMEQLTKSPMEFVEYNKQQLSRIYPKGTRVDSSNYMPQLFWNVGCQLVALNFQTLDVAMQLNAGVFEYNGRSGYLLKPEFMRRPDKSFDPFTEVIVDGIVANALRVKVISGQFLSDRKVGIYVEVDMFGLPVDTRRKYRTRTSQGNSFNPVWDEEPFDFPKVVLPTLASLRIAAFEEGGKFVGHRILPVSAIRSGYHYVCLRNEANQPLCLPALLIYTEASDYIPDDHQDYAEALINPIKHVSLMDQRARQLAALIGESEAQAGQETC
# Assays:
# Assay in all cases: cell-based or functional assay
# [1] = biological target: T1, PLCβ3 ΔXY1
# [2] = biological target: T2, PLCβ3-Δ892 ΔXY1
# [3] = biological target: T3, PLCβ3-Δ892 (residues 10–892)
binder,measurement,setting,value
"Activated Gαq (Gαq·GDP-ALF4^−) (natural protein, murine, UniProt P21279 7-359, looked up) MACCLSEEAKEARRINDEIERQLRRDKRDARRELKLLLLGTGESGKSTFIKQMRIIHGSGYSDEDKRGFTKLVYQNIFTAMQAMIRAMDTLKIPYKYEHNKAHAQLVREVDVEKVSAFENPYVDAIKSLWNDPGIQECYDRRREYQLSDSTKYYLNDLDRVADPSYLPTQQDVLRVRVPTTGIIEYPFDLQSVIFRMVDVGGQRSERRKWIHCFENVTSIMFLVALSEYDQVLVESDNENRMEESKALFRTIITYPWFQNSSVILFLNKKDLLEEKIMYSHLVDYFPEYDGPQRDAQAAREFILKMFVDLNPDSDKIIYSHFTCATDTENIRFVFAAVKDTILQLNLKEYNLV",x-fold maximum activity over basal (complex against the PLCβ3 variant alone),[1],4 x-fold
same,x-fold maximum activity over basal (complex against the PLCβ3 variant alone),[2],2 x-fold
same,x-fold maximum activity over basal (complex against the PLCβ3 variant alone),[3],22 x-fold
